Here are results for one molecule from US20200095333A1 (published 2020).

As usually defined, the Kd is the concentration at which binding is half-saturated. A high value points to weaker binding.

Test [1] deals with T1, sCD32A (soluble CD32A, negative control receptor) (UniProt P12318 34-217).
T1 construct: extracellular domain
T1 sequence: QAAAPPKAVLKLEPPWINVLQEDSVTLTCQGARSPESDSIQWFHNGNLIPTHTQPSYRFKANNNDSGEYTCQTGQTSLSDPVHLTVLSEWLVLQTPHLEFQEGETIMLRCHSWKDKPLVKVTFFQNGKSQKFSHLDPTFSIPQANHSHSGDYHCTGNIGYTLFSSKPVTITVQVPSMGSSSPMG
Nature of the test: SPR (BIAcore), receptor immobilised.

Test [2] has as its target T2, sCD16A (soluble CD16A, FcgammaRIIIA) (human, UniProt P08637 17-208).
T2 construct: extracellular domain; given only as soluble; used immobilised (SPR), coated, or biotin/HRP-labelled as probe (ELISA); also called CD16 antigen; sCD16A-Biotin
Kind of test: SPR (BIAcore), receptor immobilised, diabody 6.25-200 nM.

Test [3] concerns the target T3, sCD32B (soluble CD32B, FcgammaRIIB) (human, UniProt P31994 43-217).
T3 construct: extracellular domain; also called soluble CD32B ectodomain
T3 sequence: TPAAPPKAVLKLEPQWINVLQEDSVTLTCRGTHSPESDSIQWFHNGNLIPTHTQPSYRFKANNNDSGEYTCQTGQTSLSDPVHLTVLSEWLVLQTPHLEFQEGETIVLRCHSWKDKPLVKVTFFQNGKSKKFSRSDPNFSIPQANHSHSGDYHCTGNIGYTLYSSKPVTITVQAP
Described as above.

T2 sequence (P08637 17-208): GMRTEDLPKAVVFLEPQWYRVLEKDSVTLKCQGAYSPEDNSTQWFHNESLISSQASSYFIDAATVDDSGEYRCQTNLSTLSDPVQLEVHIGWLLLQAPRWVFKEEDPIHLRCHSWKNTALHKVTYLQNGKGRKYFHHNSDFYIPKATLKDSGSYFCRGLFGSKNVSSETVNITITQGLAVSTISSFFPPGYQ

B1: h2B6-h3G8 CBD (covalent bispecific diabody, constructs 1 and 2) (bispecific antibody)
chain 1: EIVLTQSPDFQSVTPKEKVTFTCRTSQSIGTNIHWYQQKPDQSPKLLIKEVSESISGVPSRFSGSGSGTDFTLTINSLEAEDAATYYCQQSNTWPFTFGGGTKVEIKGGGSGGGGQVTLRESGPALVKPTQTLTLTCTFSGFSLSTSGMGVGWIRQPPGKALEWLAHIWWDDDKRYNPALKSRLTISKDTSKNQVVLTMTNMDPVDTATYYCAQINPAWFAYWGQGTLVTVSSLGGC
chain 2: DIVMTQSPDSLAVSLGERATINCKASQSVDFDGDSFMNWYQQKPGQPPKLLIYTTSNLESGVPDRFSGSGSGTDFTLTISSLQAEDVAVYYCQQSNEDPYTFGQGTKLEIKGGGSGGGGQVQLVQSGAEVKKPGASVKVSCKASGYTFTNYWIHWVRQAPGQGLEWIGVIDPSDTYPNYNKKFKGRVTMTVVVSTSTAYMELRSLRSDDTAVYYCARNGDSDYYSGMDYWGQGTTVTVSSLGGC
notes: also called h2B6-h3G8 diabody; h2B6-h3G8 covalent heterodimer
For B1, in test [1], the binding result was “no binding (tested: 100 nM)”. For the same molecule, the values for the Kd in test [2] and in test [3] were 22.7 nM and 15 nM, respectively.
